Measured values published in the DeepSol protein solubility set.

Experiment: soluble on expression in E. coli; label from the status in PepcDB or PDB records

**Q.** Which “soluble on expression in E. coli” value does the source give for “MSLGIPLSQLIVESPKPLSSGITGLDEILNLGFQARSIYEIFGPPGIGKTNFGIQLVCNSLEGIQQSEINDDKILWIETFQEMPINILRERFQKFKIVEENVKRVRITKFGQLLYFFQNLFKLSQSVRYKLVIIDGFSQLVCDHLCTLSKRGGGMIDKTIHELKCRHLILIFTVMTKYTHSTGSTIIVLNDCMNTAFQSNEFESLEEYYEILDDGSNFFVNSNNERRKNNVHILKSALVANIAMGSKDSTWEVFLRDRIGLFRDWNEQVDETVFVKSKRVKASSSQSNEGCTTIKEMRINKRNFENLRIAIVFNLHGEDRKREGRNLKRSRSSDDRNYIVKFDFDKATGQLRDIIDLKPDTANIASFPTLSTSSSSCSQVFNNIDSNDNPLPNAEGKEEIIYDSEG” here?
**A.** Its value is “not soluble”.

**Q.** With “MHKRFAALAAPLLYLACASAQADTMRCGSALVSVGDRAFEVQQKCGDPDHRDDVGYTLGSYDRREFKVEEWVYGPRNGVTYILTFEANKLKRIEFKR” as the sequence, how does the “soluble on expression in E. coli” value read?
**A.** Its value is “not soluble”.

**Q.** For “MSLKTLIKNVHILTMDEQFSEIKAGYLVIEEDTIVELAPMTTLDEKRMAANQVIDGQNGILMPGMINTHTHVGMIPFRSLGDDVPDRLRRFLFPLEQFMTKELVGCSSDYAIAEMLLSGITSFCDMYYFEDEIAKSCEKMSVRALLGETIIDMPTCDSPEPSGGLFYAETFIRKWQGHPLITPMLAPHAPNTNSPEVLAKIIELSRQYQVPVTMHVAEMTYEMAEFEKAYQKTPIAFLEELGYLSEPFILAHCILATDEDLASLAATNGKARVAHCIGANTKSAKGVAPIKQMLDQGIIVGLGTDGPSSGNTLDLFTQMRMVANFHKTAHQDRSLFPAKEIVYLATMGGAKTLGLAEQVGSLEVDKKADITLIETQSVNMFPIFDAYSALVYSANASNVEAVWVNGQQLVANKELQQANLKEIKEKLYQAMNTFVKEAKKRAALEGHHHHHH”, which “soluble on expression in E. coli” value is on record?
**A.** Its value is “soluble”.

**Q.** With “MNVTSVTSEDGVKEFEKIVVEPEDIEYVEIPADAKNVDLTRHRIKEIGDYSWLTHVEHFSFRWNLIKKIENLDCLTTLTHLEFYDNQITKVENLDSLVNLESLDLSFNRITKIENLEKLTKLKTLFFVHNKITKIEGLDTLTELEYLELGDNRIAKIENLDNNLKLDRLFLGANQIRLIENVDHLKKLTVLSLPANAITVVDNISGLHNLKEIYLAQNGIKYVCGIDEHLPLEILDFNQNRLEKVENIHQLKTLTDFWARGNKLDNWSIMDELVELPQLNSVYLDFNPIASVDTYRGKVIHLLQQITRLDGTQCREHSMLRPPKEEKNETELSRVVLDNPSDDHPTESV” as the sequence, how does the “soluble on expression in E. coli” value read?
**A.** The value was “not soluble”.

**Q.** For “MSLQYFKVRDEIRSMVSDSVDEIVDGVSKTTAEVINGRKSIAQYATSLIENNPEPDNVRTIISQPLIKNTFLLVGFGLEKDGSNINNDPSWNPGPTWDPRVRPWYKDAKNAGKLVITAPYADSASGEILVSVATPVKDSATGQFLGSIFYDVSLAELAELVNEVKLFDAGYVFIVSEDGTTIAHPKKEFNGKPMSEFLGESKINVDTHQVIINGKPYAVSFSDVEGEDWYVGVVIDEEIAYAALDELRRSEGHHHHHH”, which “soluble on expression in E. coli” value is on record?
**A.** Its value is “soluble”.

**Q.** For “MLRLLLLCWLCGVSFIGGAQELRVKDTASLTQALVQAQDGDTLVLDTAVYEGNFSVTRSIHIKGEAGATLDAQRQGSALTITAPKVIVEGLNIRHWGRDLYYHDAGILLLPGADEVLIKGNRFVGDGFGIYGEQLASPRIIENSISGNGAIYVLDRGDGIFLKHVTAPDVQQNHIIFVRDGVYLESVTDSKIHHNQFAKLQYGIHYMYTRGDEASQNQATSVDGGYALMNSQQIYLHHNRVSQARDFGILLNITNDSHVQANIATEVQHPQGSVELGNEGKGIFIYAAQNNRIEDNEFSQSDTGISMAMGGEANRLWHNRILGNQTQVKYVGEAQLEWSYQGQGNYWSEYRGWDTNGDGVGDIAHRPNDSLDKLFWLYPEAKLLMESPVVLLLRWVERQFQPTSISGVSDSFPLMRLITEGDGIAAALEHHHHHH”, which “soluble on expression in E. coli” value is on record?
**A.** The value was “soluble”.

**Q.** Which “soluble on expression in E. coli” value does the source give for “MSTCKQFLSTKKKSKDSYEFIENLGEGSFAEVVLVAKVGTPNKMFAMKEISIVGKDECFMESIKRECSIQKRLSKSRHLNMIHLFEIRTNPENYQLILSYADGGDLFEKINQHGGLGSDEAHRYFKQLIDGLRFIHEEGVTHRDIKPENLLLTKSGILKIADFGFATMHRFNGAEQMLNAYCGSPPYIAPEVLTGIDYRGPAVDIWSAGVVLIAMIAGAVPWEQADHFDIFQSRYCSFRRNGRKGAWSRMSQQVISLLRKILLQAELRATISMIEEDPWFIYGEEVDAENKENGSQAQYRQESQTSSKPILNFENLLKDLNVSI” here?
**A.** Its value is “not soluble”.

**Q.** For “MGSDKIHHHHHHMKIVYIITQATWGGAQAHLYSLIKAQVMRGNAVALVYGVEGRLSASVAKEFQDVQVVRVASLVHPIAPLSDLKAIYTLRKLVKNWQPDIIHLHSSKAGMIGRLATIRLPMKVIFTVHGWGFTPGVGKKRQLLMKTIEKALSRLTTAYICVSQFDYDLGVQSGVITSAHPARVIHNGVTALTGANKATSSEVFVLSMAARFDTPKRQDILIQALTYLPENLPIVCHFLGDGPSIEACKTLTHQLNLDGKVNFYGVVDNVQKYYSQSDVGVLISDYEALPISLVEALAQGLPIIASNVGGIQELIDHNGFLVTNDARQIAEKILTLYQSKKIAEVKTNSYQMYQRHYTEHEMLEQTQAYYLRCLA”, which “soluble on expression in E. coli” value is on record?
**A.** The value was “not soluble”.

**Q.** Which “soluble on expression in E. coli” value does the source give for “MSLFINMYRQLLSLPLSALVKNNPIPANPIEELSLNIHQPIVYVLPYTSQTDFVIFRRNCLALGLPDPAEKNEINGVKLPRYVYLDEGRRIFKSKGAKDETTTIFNKYLELHRTSESLDVQLIPVSVLWGRSPGQEDKSDLPNLRLLNGIQKTFAAIWFGRDTFVRFSQAVSLRYMVVEHGSDEKIAQKLARVAKMHFAKQRISATGPRLPNRQAMFNKLLQSEAIRRAIEDEAKSKNISIEKAQKEAYKILDEIAADVSHSSLRAVDRFLRWLWNKLYSGINVQNSNRVRKLALEGHEIVYVPCHRSHIDYLLLSYVLYHQGLVPPHIAAGINLNFWPIGRMFRSWGAFFIRRTFKGNRLYSAIFREYLSELFHRGYSVEYFIEGGRSRTGRLLAPKTGMMSMTLQALQHSQTRPISIVPVYVGYEHVLEVDTYAKELRGAAKEKENAGLVLRVIKKLRNLGQGFVNFGEPITLSNYLSQHFPDWKEQNHEEKPQWFTPAVNNISKQVMININKAAAVNSMNLVGTALLSSRQRALSREQLLEQLSSYQQLLQNVPYSTDVVLPNVTPQAMLEHVLALDRIGVLIEKDNFGEIVRLERSSAVLMTYYRNNIQHLFVLPSLVASIILHYEAIQKDLLLDAIRKIYPFLQGELFLHFNEDELNVQIHQIINEFARQSVINSNDNFLSINKSKVRILQLWSAGMLEILQRYYITVTILQKQPAISRAELEKESQLVAQRLSVLHGINAPEFFDKAVFSSFIANLKEQRYFDESGYTVLDKIEELASTLSHLISTEICLTVKGTIEKSEDLSSEGHHHHHH” here?
**A.** Its value is “soluble”.

**Q.** With “MMKEVLDAFRKSGEAEGFGHNKMSSSEVASHYNKVLQVGIEGRKESRIFFMRNMNNWVKSQLINDAKQRVNDNGVNNPRVLDLACGKGGDLKKWDIAGAKDVVMADVADVSIQQAEERYKQMFGYKKNNIFTVQFIVADCTKENLEDRIENKDPFDLVSCQFALHYSFVDEASARIFLKNAVGMLKPGGVFIGTLPDADRIVWSMRNGENGQFANEVCKITYENVEELAEGKVPLFGAKFHFSLDEQVNCPEFLAYFPLVKHLLEELDMELLFVHNFAEAINKWLEPGRRLLESMTGLETYPNEKLSGKSDDEYLEAKAKLDAFPEDERIKTMGTLSKSEWEAICMYLVFGFRKKKSEAEKTEEEPATTKPVAESESEQKEVTESEEKEDQEDCEHQEAQTN” as the sequence, how does the “soluble on expression in E. coli” value read?
**A.** Its value is “soluble”.

**Q.** Which “soluble on expression in E. coli” value does the source give for “MPGAVDFKERISRQRPHDRETYGHAGNTDLQDIVYQLESDRGRIVNSAAVRRLQQKTQVFPLERNAAVRSRLTHSLEVQQTGRFIVRTLFRQLGPRAAEVGLDGLEGALESLVEMACLMHDVGNPPFGHFGEYAINDWFERNLDALFERRIPPGQGDGLLQQRMLTDLKHFEGNAQAIRLVVKLLRLNLTYTQTAGLLKYVRPAYEPKPDKAAANHYLNKKPGFYLSEEAFVDELRRVLGMRPGTRHPVAYIMEAADDISYCLADIEDSVEKGILDIRQLADLLVKKFAVHHSPDAPIPGDADNMSFQRMVDYSLEKAEREPINKVSEFFIRLRVKMIHPLVQHAAQQFIDNFEAVHAGTLGRALMEDGSLPHAIVQTFKDVAMEWVFCHPEVETLELQGYRIIQGLLDFYAPLLRLPAEEFQALAEGRQAAAPHPQLLVRRLPSQQIKAYLEAMKGVAEDPLQRQWEFYHRCRMLQDFVSGMTDQHAQDEYRALSAL” here?
**A.** Its value is “not soluble”.

**Q.** Which “soluble on expression in E. coli” value does the source give for “MILFDKNKRILKKYAKMVSKINQIESDLRSKKNSELIRLSMVLKEKVNSFEDADEHLFEAFALVREAARRTLGMRPFDVQVMGGIALHEGKVAEMKTGEGKTLAATMPIYLNALIGKGVHLVTVNDYLARRDALWMGPVYLFLGLRVGVINSLGKSYEVVWKNPDLARKAIEENWSVWPDGFNGEVLKEESMNKEAVEAFQVELKEITRKEAYLCDVTYGTNNEFGFDYLRDNLVLDYNDKVQRGHFYAIVDEADSVLIDEARTPLIISGPSKESPSVYRRFAQIAKKFVKDKDFTVDEKARTIILTEEGVAKAEKIIGVENLYDPGNVSLLYHLINALKALHLFKKDVDYVVMNGEVIIVDEFTGRLLPGRRYSGGLHQAIEAKEGVPIKEESITYATITFQNYFRMYEKLAGMTGTAKTEESEFVQVYGMEVVVIPTHKPMIRKDHDDLVFRTQKEKYEKIVEEIEKRYKKGQPVLVGTTSIEKSELLSSMLKKKGIPHQVLNAKYHEKEAEIVAKAGQKGMVTIATNMAGRGTDIKLGPGVAELGGLCIIGTERHESRRIDNQLRGRAGRQGDPGESIFFLSLEDDLLRIFGSEQIGKVMNILKIEEGQPIQHPMLSKLIENIQKKVEGINFSIRKTLMEMDDVLDKQRRAVYSLRDQILLEKDYDEYLKDIFEDVVSTRVEEFCSGKNWDIESLKNSLSFFPAGLFDLDEKQFSSSEELHDYLFNRLWEEYQRKKQEIGEDYRKVIRFLMLRIIDDHWRRYLEEVEHVKEAVQLRSYGQKDPIVEFKKETYYMFDEMMRRINDTIANYVLRVVKVSEKDEKEAKEELGKIRLVHEEFNLVNRAMRRATEKKKKKDGLHSFGRIRVKR” here?
**A.** Its value is “soluble”.

**Q.** With “MGSDKIHHHHHHMKNLLGYSEDYLKERKGYITAKEICNQPKLWRETYEIILSQREKLKSFLDNFAKKPNAKIVITGAGSSAFVGNSVVSYLNAKENIKIEAIATTDIVSHPFYYLKKDEPTLLISCARSGNSPESTAAVTLAEKIVDDISHLIITCNSEGKLALHAKRNYNSFLLLMPEESNDKGFAMTGSFSTMLLSCLLIFNLDKLESIGKQIESISMQGEKVLVNNVELMKKIVGEKFKRTVYLGAANAFGLAKESALKVLELTAGKIATLYDTPLGFRHGPKSIIDDETLIVIFFSNDTYAREYEYDLLKEVYSQNGNHKVLAISEYEDKLIEDNSDYFIAINKEEQEYEDDSFLSLDYLLNAQMYAFINSMELGIGPDNPCPTGEVNRVVKGVIIHDYR” as the sequence, how does the “soluble on expression in E. coli” value read?
**A.** Its value is “not soluble”.

**Q.** With “MSLTTENQNPLVLDKNEEISQQKADDIRLQLRQEPEVKRLAQQIDVKNQMELLEYGKEPAVEISKFSDRILGMMKTTSVTDSGTMLTQLGKIMDRFDKNDFDEPKGLMAKIFKRGGSMIEKIFKKYQTLGGEIEKIHVEISKYKDEMTKTNYTLDEMYENNIKYYMELEKYVVAGQMKLEEMQSILPSYEEKAASGNQLAQMQLDTLRNGIQALEERVYDLDMARMVALQTAPQIRLLQRGNAKLIGKINSAFIITIPIFKNGIIQAVTVKRQKLVADSMSELDRRTNEMLKRNAENISSQSVEIARMAGRPSIDIETIESSWNTIVSGMQETKQIEEENKRLREDGARRIAQLQDNIKKAALQQEGHHHHHH” as the sequence, how does the “soluble on expression in E. coli” value read?
**A.** Its value is “not soluble”.

**Q.** With “MGSDKIHHHHHHMATLKRIWLALNPQEAAAWQALLTTAGLAADRQVDYTVGIFEGETLLATGSLSGNIIKEVAVTPATQHENLLAQVIQALLDRLDDDGVTHSFVYTKPTTVKFFLSLGFKQLAATDAVVLLERGYPNLTDYVASLEKQRRPEKPAAAIVMNANPITRGHAYLIETAAKVNPVVYVFVLSAERSLFTADERLALVRKVAARWPNVVVLPTNDYMVSNTTFPSYFLKERADADVAAVQARLDAALFKQAIAPVLGITRRYVGEEPLSPVTAIYNRELAATFGSAIELIVVPRLMIDGDVVSATRVRAAMAQQDWKTVQQLVYPEVYQEIKERSTHGN” as the sequence, how does the “soluble on expression in E. coli” value read?
**A.** Its value is “not soluble”.
